According to patent publication US20210388087A1 (Chugai, published 2021):

B1: dBBDu183H H93Q/dBBDu072L (antibody, name in Kabat numbering, V domains shown)
VH: QVQLVESGGGLVQPGRSLRLSCAASGFTFSNAWMHWVRQAPGKGLEWVAQIKDKGNAYAAYYAPSVKGRFTISRDDSKNSIYLQMNSLKTEDTAVYYCQYVHYASASTVLPAFGVDAWGQGTTVTVSS
VL: DIVMTQSPLSLPVTPGEPASISCQASQELVHMNRNTYLHWYQQKPGQAPRLLIYKVSNRFPGVPDRFSGSGSGTDFTLKISRVEAEDVGVYYCAQGTSVPFTFGQGTKLEIK
B2: dBBDu183H H96V/dBBDu072L (antibody, name in Kabat numbering, V domains shown)
VH: QVQLVESGGGLVQPGRSLRLSCAASGFTFSNAWMHWVRQAPGKGLEWVAQIKDKGNAYAAYYAPSVKGRFTISRDDSKNSIYLQMNSLKTEDTAVYYCHYVVYASASTVLPAFGVDAWGQGTTVTVSS
VL: DIVMTQSPLSLPVTPGEPASISCQASQELVHMNRNTYLHWYQQKPGQAPRLLIYKVSNRFPGVPDRFSGSGSGTDFTLKISRVEAEDVGVYYCAQGTSVPFTFGQGTKLEIK
B3: dBBDu183H H96T/dBBDu072L (antibody, name in Kabat numbering, V domains shown)
VH: QVQLVESGGGLVQPGRSLRLSCAASGFTFSNAWMHWVRQAPGKGLEWVAQIKDKGNAYAAYYAPSVKGRFTISRDDSKNSIYLQMNSLKTEDTAVYYCHYVTYASASTVLPAFGVDAWGQGTTVTVSS
VL: DIVMTQSPLSLPVTPGEPASISCQASQELVHMNRNTYLHWYQQKPGQAPRLLIYKVSNRFPGVPDRFSGSGSGTDFTLKISRVEAEDVGVYYCAQGTSVPFTFGQGTKLEIK
B4: dBBDu183H H96Q/dBBDu072L (antibody, name in Kabat numbering, V domains shown)
VH: QVQLVESGGGLVQPGRSLRLSCAASGFTFSNAWMHWVRQAPGKGLEWVAQIKDKGNAYAAYYAPSVKGRFTISRDDSKNSIYLQMNSLKTEDTAVYYCHYVQYASASTVLPAFGVDAWGQGTTVTVSS
VL: DIVMTQSPLSLPVTPGEPASISCQASQELVHMNRNTYLHWYQQKPGQAPRLLIYKVSNRFPGVPDRFSGSGSGTDFTLKISRVEAEDVGVYYCAQGTSVPFTFGQGTKLEIK
B5: dBBDu183H H96D/dBBDu072L (antibody, name in Kabat numbering, V domains shown)
VH: QVQLVESGGGLVQPGRSLRLSCAASGFTFSNAWMHWVRQAPGKGLEWVAQIKDKGNAYAAYYAPSVKGRFTISRDDSKNSIYLQMNSLKTEDTAVYYCHYVDYASASTVLPAFGVDAWGQGTTVTVSS
VL: DIVMTQSPLSLPVTPGEPASISCQASQELVHMNRNTYLHWYQQKPGQAPRLLIYKVSNRFPGVPDRFSGSGSGTDFTLKISRVEAEDVGVYYCAQGTSVPFTFGQGTKLEIK
B6: dBBDu183H H93W/dBBDu072L (antibody, name in Kabat numbering, V domains shown)
VH: QVQLVESGGGLVQPGRSLRLSCAASGFTFSNAWMHWVRQAPGKGLEWVAQIKDKGNAYAAYYAPSVKGRFTISRDDSKNSIYLQMNSLKTEDTAVYYCWYVHYASASTVLPAFGVDAWGQGTTVTVSS
VL: DIVMTQSPLSLPVTPGEPASISCQASQELVHMNRNTYLHWYQQKPGQAPRLLIYKVSNRFPGVPDRFSGSGSGTDFTLKISRVEAEDVGVYYCAQGTSVPFTFGQGTKLEIK
B7: dBBDu183H H96F/dBBDu072L (antibody, name in Kabat numbering, V domains shown)
VH: QVQLVESGGGLVQPGRSLRLSCAASGFTFSNAWMHWVRQAPGKGLEWVAQIKDKGNAYAAYYAPSVKGRFTISRDDSKNSIYLQMNSLKTEDTAVYYCHYVFYASASTVLPAFGVDAWGQGTTVTVSS
VL: DIVMTQSPLSLPVTPGEPASISCQASQELVHMNRNTYLHWYQQKPGQAPRLLIYKVSNRFPGVPDRFSGSGSGTDFTLKISRVEAEDVGVYYCAQGTSVPFTFGQGTKLEIK
B8: dBBDu183H H96N/dBBDu072L (antibody, name in Kabat numbering, V domains shown)
VH: QVQLVESGGGLVQPGRSLRLSCAASGFTFSNAWMHWVRQAPGKGLEWVAQIKDKGNAYAAYYAPSVKGRFTISRDDSKNSIYLQMNSLKTEDTAVYYCHYVNYASASTVLPAFGVDAWGQGTTVTVSS
VL: DIVMTQSPLSLPVTPGEPASISCQASQELVHMNRNTYLHWYQQKPGQAPRLLIYKVSNRFPGVPDRFSGSGSGTDFTLKISRVEAEDVGVYYCAQGTSVPFTFGQGTKLEIK
B9: dBBDu183H H96S/dBBDu072L (antibody, name in Kabat numbering, V domains shown)
VH: QVQLVESGGGLVQPGRSLRLSCAASGFTFSNAWMHWVRQAPGKGLEWVAQIKDKGNAYAAYYAPSVKGRFTISRDDSKNSIYLQMNSLKTEDTAVYYCHYVSYASASTVLPAFGVDAWGQGTTVTVSS
VL: DIVMTQSPLSLPVTPGEPASISCQASQELVHMNRNTYLHWYQQKPGQAPRLLIYKVSNRFPGVPDRFSGSGSGTDFTLKISRVEAEDVGVYYCAQGTSVPFTFGQGTKLEIK
B10: dBBDu183H H93S/dBBDu072L (antibody, name in Kabat numbering, V domains shown)
VH: QVQLVESGGGLVQPGRSLRLSCAASGFTFSNAWMHWVRQAPGKGLEWVAQIKDKGNAYAAYYAPSVKGRFTISRDDSKNSIYLQMNSLKTEDTAVYYCSYVHYASASTVLPAFGVDAWGQGTTVTVSS
VL: DIVMTQSPLSLPVTPGEPASISCQASQELVHMNRNTYLHWYQQKPGQAPRLLIYKVSNRFPGVPDRFSGSGSGTDFTLKISRVEAEDVGVYYCAQGTSVPFTFGQGTKLEIK
B11: dBBDu183H H96W/dBBDu072L (antibody, name in Kabat numbering, V domains shown)
VH: QVQLVESGGGLVQPGRSLRLSCAASGFTFSNAWMHWVRQAPGKGLEWVAQIKDKGNAYAAYYAPSVKGRFTISRDDSKNSIYLQMNSLKTEDTAVYYCHYVWYASASTVLPAFGVDAWGQGTTVTVSS
VL: DIVMTQSPLSLPVTPGEPASISCQASQELVHMNRNTYLHWYQQKPGQAPRLLIYKVSNRFPGVPDRFSGSGSGTDFTLKISRVEAEDVGVYYCAQGTSVPFTFGQGTKLEIK
B12: dBBDu183H H96Y/dBBDu072L (antibody, name in Kabat numbering, V domains shown)
VH: QVQLVESGGGLVQPGRSLRLSCAASGFTFSNAWMHWVRQAPGKGLEWVAQIKDKGNAYAAYYAPSVKGRFTISRDDSKNSIYLQMNSLKTEDTAVYYCHYVYYASASTVLPAFGVDAWGQGTTVTVSS
VL: DIVMTQSPLSLPVTPGEPASISCQASQELVHMNRNTYLHWYQQKPGQAPRLLIYKVSNRFPGVPDRFSGSGSGTDFTLKISRVEAEDVGVYYCAQGTSVPFTFGQGTKLEIK
B13: dBBDu183H H93R/dBBDu072L (antibody, name in Kabat numbering, V domains shown)
VH: QVQLVESGGGLVQPGRSLRLSCAASGFTFSNAWMHWVRQAPGKGLEWVAQIKDKGNAYAAYYAPSVKGRFTISRDDSKNSIYLQMNSLKTEDTAVYYCRYVHYASASTVLPAFGVDAWGQGTTVTVSS
VL: DIVMTQSPLSLPVTPGEPASISCQASQELVHMNRNTYLHWYQQKPGQAPRLLIYKVSNRFPGVPDRFSGSGSGTDFTLKISRVEAEDVGVYYCAQGTSVPFTFGQGTKLEIK
B14: dBBDu183H H93T/dBBDu072L (antibody, name in Kabat numbering, V domains shown)
VH: QVQLVESGGGLVQPGRSLRLSCAASGFTFSNAWMHWVRQAPGKGLEWVAQIKDKGNAYAAYYAPSVKGRFTISRDDSKNSIYLQMNSLKTEDTAVYYCTYVHYASASTVLPAFGVDAWGQGTTVTVSS
VL: DIVMTQSPLSLPVTPGEPASISCQASQELVHMNRNTYLHWYQQKPGQAPRLLIYKVSNRFPGVPDRFSGSGSGTDFTLKISRVEAEDVGVYYCAQGTSVPFTFGQGTKLEIK
B15: dBBDu183H H96R/dBBDu072L (antibody, name in Kabat numbering, V domains shown)
VH: QVQLVESGGGLVQPGRSLRLSCAASGFTFSNAWMHWVRQAPGKGLEWVAQIKDKGNAYAAYYAPSVKGRFTISRDDSKNSIYLQMNSLKTEDTAVYYCHYVRYASASTVLPAFGVDAWGQGTTVTVSS
VL: DIVMTQSPLSLPVTPGEPASISCQASQELVHMNRNTYLHWYQQKPGQAPRLLIYKVSNRFPGVPDRFSGSGSGTDFTLKISRVEAEDVGVYYCAQGTSVPFTFGQGTKLEIK
B16: dBBDu183H H93Y/dBBDu072L (antibody, name in Kabat numbering, V domains shown)
VH: QVQLVESGGGLVQPGRSLRLSCAASGFTFSNAWMHWVRQAPGKGLEWVAQIKDKGNAYAAYYAPSVKGRFTISRDDSKNSIYLQMNSLKTEDTAVYYCYYVHYASASTVLPAFGVDAWGQGTTVTVSS
VL: DIVMTQSPLSLPVTPGEPASISCQASQELVHMNRNTYLHWYQQKPGQAPRLLIYKVSNRFPGVPDRFSGSGSGTDFTLKISRVEAEDVGVYYCAQGTSVPFTFGQGTKLEIK
B17: dBBDu183H H96K/dBBDu072L (antibody, name in Kabat numbering, V domains shown)
VH: QVQLVESGGGLVQPGRSLRLSCAASGFTFSNAWMHWVRQAPGKGLEWVAQIKDKGNAYAAYYAPSVKGRFTISRDDSKNSIYLQMNSLKTEDTAVYYCHYVKYASASTVLPAFGVDAWGQGTTVTVSS
VL: DIVMTQSPLSLPVTPGEPASISCQASQELVHMNRNTYLHWYQQKPGQAPRLLIYKVSNRFPGVPDRFSGSGSGTDFTLKISRVEAEDVGVYYCAQGTSVPFTFGQGTKLEIK
B18: dBBDu183H H96G/dBBDu072L (antibody, name in Kabat numbering, V domains shown)
VH: QVQLVESGGGLVQPGRSLRLSCAASGFTFSNAWMHWVRQAPGKGLEWVAQIKDKGNAYAAYYAPSVKGRFTISRDDSKNSIYLQMNSLKTEDTAVYYCHYVGYASASTVLPAFGVDAWGQGTTVTVSS
VL: DIVMTQSPLSLPVTPGEPASISCQASQELVHMNRNTYLHWYQQKPGQAPRLLIYKVSNRFPGVPDRFSGSGSGTDFTLKISRVEAEDVGVYYCAQGTSVPFTFGQGTKLEIK
B19: dBBDu183H H93V/dBBDu072L (antibody, name in Kabat numbering, V domains shown)
VH: QVQLVESGGGLVQPGRSLRLSCAASGFTFSNAWMHWVRQAPGKGLEWVAQIKDKGNAYAAYYAPSVKGRFTISRDDSKNSIYLQMNSLKTEDTAVYYCVYVHYASASTVLPAFGVDAWGQGTTVTVSS
VL: DIVMTQSPLSLPVTPGEPASISCQASQELVHMNRNTYLHWYQQKPGQAPRLLIYKVSNRFPGVPDRFSGSGSGTDFTLKISRVEAEDVGVYYCAQGTSVPFTFGQGTKLEIK
B20: dBBDu183H H96E/dBBDu072L (antibody, name in Kabat numbering, V domains shown)
VH: QVQLVESGGGLVQPGRSLRLSCAASGFTFSNAWMHWVRQAPGKGLEWVAQIKDKGNAYAAYYAPSVKGRFTISRDDSKNSIYLQMNSLKTEDTAVYYCHYVEYASASTVLPAFGVDAWGQGTTVTVSS
VL: DIVMTQSPLSLPVTPGEPASISCQASQELVHMNRNTYLHWYQQKPGQAPRLLIYKVSNRFPGVPDRFSGSGSGTDFTLKISRVEAEDVGVYYCAQGTSVPFTFGQGTKLEIK

Target: T1, Human CD3eg linker (human)
T1 construct: single-chain construct; also called recombinant human CD3
T1 chain: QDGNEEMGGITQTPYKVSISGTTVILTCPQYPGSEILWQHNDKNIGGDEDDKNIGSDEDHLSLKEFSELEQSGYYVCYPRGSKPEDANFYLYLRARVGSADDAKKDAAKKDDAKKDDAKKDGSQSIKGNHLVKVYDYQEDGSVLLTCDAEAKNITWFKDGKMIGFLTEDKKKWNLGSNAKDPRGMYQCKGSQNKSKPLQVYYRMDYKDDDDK
Experiment: SPR, vs unmutated H183/L072

For B1, which “fold change of affinity” value is on record?
Its value is 0 fold.

For B2, which “fold change of affinity” value is on record?
Its value is 0 fold.

For B3, which “fold change of affinity” value is on record?
Its value is 0 fold.

B4 was tested. Which “fold change of affinity” value did it give?
Its value is 0.3 fold.

Which “fold change of affinity” value does the source give for B5 here?
The value was 0 fold.

With B6 as the binder, how does the “fold change of affinity” value read?
Its value is 0 fold.

How did the “fold change of affinity” value turn out when B7 was run?
Its value is 0 fold.

Which “fold change of affinity” value does the source give for B8 here?
The value was 0 fold.

B9 was tested. Which “fold change of affinity” value did it give?
The value was 0.2 fold.

With B10 as the binder, how does the “fold change of affinity” value read?
The value was 0 fold.

B11 was tested. Which “fold change of affinity” value did it give?
Its value is 0 fold.

B12 was tested. Which “fold change of affinity” value did it give?
The value was 0 fold.

Which “fold change of affinity” value does the source give for B13 here?
The value was 2.4 fold.

With B14 as the binder, how does the “fold change of affinity” value read?
The value was 0 fold.

With B15 as the binder, how does the “fold change of affinity” value read?
Its value is 0.3 fold.

For B16, which “fold change of affinity” value is on record?
Its value is 0 fold.

B17 was tested. Which “fold change of affinity” value did it give?
Its value is 0.6 fold.

Which “fold change of affinity” value does the source give for B18 here?
The value was 0.2 fold.

B19 was tested. Which “fold change of affinity” value did it give?
The value was 0 fold.

With B20 as the binder, how does the “fold change of affinity” value read?
The value was 0 fold.
